Measured values as given in the supplement of paper PMC10567573.

B1: C2CD2L (parent)
chain: LTLKVLRSSSCGDTELLGQATLPV
B2: DFFB (parent)
chain: TLVEAIKEQDGREVDWEYFYGLLF

Variants of: B1
Experiment: protein stability index of a GFP-peptide fusion (GPS, HEK-293T) (PSI 1-6); higher = more stable
Settings: c terminus: a fixed tail appended
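Note: lentivirally expressed fusions sorted by FACS into six bins by GFP to DsRed ratio, PSI derived from sequencing read proportions per bin multiplied by bin number.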

Protein stability index: each site, then its substitutions
S9: F 2.54; E 1.1; K 1.4; W 3.38; A 1.95; N 1.82; D 1.72; R 3.44; M 3.09; V 1.09; H 2.94; C 1.76; P 1.71; I 2.11; Q 1.43; L 1.16
G12: D 2.05; E 1.88; A 1.66; N 1.56; K 2.95; P 1.82; L 2.82; Q 2.12; M 3.71; I 2.27; F 3.92; H 1.97
C11: M 2.48; S 3.41; K 2.11; G 2.58; Q 1.43; V 2.53; A 1.55; T 2.36; L 2.78; N 2.04; E 1.66; H 1.63; Y 3.16; P 1.34; I 4.68; D 1.8; R 1.9
S10: D 2; C 3.45; N 1.67; L 2.44; H 3; I 1.76; E 1.75; W 4.07; T 3.38; V 3.73; Y 3.53; Q 1.78; P 2.45; F 2.93; A 3.7; K 3.12; M 5.18
S8: N 3.13; F 4.03; W 4.16; D 1.93; E 1.72; R 3.03; M 3.9
R7: L 3.52; P 2.08; S 1.13; M 2.32; Q 1.33; E 1.96; V 1.85; H 2.61; A 1.19; N 1.19; T 2.88; K 3.05; G 1.37; D 2.02; C 3.71
L1: N 2.97; Y 1.77; F 1; H 2.24; S 2.74; R 2.29; T 2.04; W 2.67; M 2.63; P 2.9; K 1.99; D 3.35; E 2.76; I 2.76; Q 2.96; A 4.09; G 2.56; C 2.58
K4: E 2.12; G 2.46; D 1.94; F 2.97; P 2.66; N 1.19; C 2.5; M 1.06; Y 3.27; S 1.18; H 1.65; W 2.53; V 2.8
L3: G 2.16; A 2.59; W 2.45; H 2.51; I 4.28; E 3.55; N 3.56; R 2.63; F 2.31; K 3.07; M 1.46; Y 1.59; S 2.74; Q 2.87; T 2.71; P 3.51; C 1.68; D 3.35
V5: D 2.97; R 2.05; H 2.27; P 2.38; S 2.11; Q 2.3; Y 2.69; A 2.3; T 1.83; C 1.76; L 2.75; E 2.82; F 1.86; M 1.75; N 2.26; K 2.17; G 2.52; I 2.08
T2: R 1.64; W 2.99; G 1.93; A 1.66; Q 2.93; E 1.92; C 2.32; I 2.9; K 2.17; P 2.8; D 1.95; Y 2.94; H 1.3
L6: R 2.03; V 3.39; F 2.21; P 2.24; S 1.89; D 2.47; Q 2.59; K 2.17; N 2.19; Y 3.33; A 3.16; T 1.26; G 1.96; I 2.83; C 1.69; H 2.13; E 2.49

Variants of: B2
Experiment: as above
Settings: c terminus: a fixed tail appended

Protein stability index of substitutions, site by site:
L22: I 1.97; A 2; D 2.62; V 1.96; H 2.43; Y 1.86; Q 2.94; M 1.85; C 2.04; E 2.51; R 1.8; W 1.1; F 1.52; S 2.49; T 2.58; P 3.28
L23: M 2.12; A 1.86; V 1.92; C 1.6; P 2.18; Y 2.86; D 2; H 2.07; I 2.24; S 2.1; R 2.5; K 2.03; E 2.19; Q 2.37; F 2.26; W 2.21
Y20: A 2.03; T 1.54; H 2.03; Q 2.07; P 2.67; V 2.42; R 2.67; I 1.78; D 2.36; M 2.64; F 1.93; S 1.33; W 1.72; K 1.6; L 1.53; E 1.67; C 1.92; N 2.25; G 1.79
W16: A 2.06; Q 2.17; I 1.93; D 2.53; E 2.19; V 2.61; G 2.44; Y 1.72; H 1.58; C 2.46; K 1.87; N 2.63; F 1.93; P 2.44; L 1.66; T 3.12; M 2.05; S 2.84; R 2.3
F24: R 1.63; I 1.93; D 2.21; L 1.7; S 2.52; P 2.53; E 2.22; T 2.42; H 2.2; C 2.23; N 1.95; Q 2.27; W 1.07; Y 2.31; A 1.69; K 1.79
D15: W 1.88; T 2.08; Y 1.19
Y18: H 3.81; M 1.94; T 1.9; L 1.25; F 1.76; R 2.2; N 2.44; S 2.24; Q 2.18; G 1.71; W 1.76; I 2.06; D 2.16; V 2.34; A 1.92
G21: M 2.26; P 1.46; L 1.35; N 1.87; T 1.88; E 1.93; Q 2.25; R 1.84; H 2.37; V 1.08; C 1.72; S 2; Y 1.53; W 1.83; K 2.31; I 1.34
E17: Y 1.67; P 1.33; H 2.08; I 1.48; T 2.42; M 1.78; L 2.18; F 1.6; Q 2.21; N 1.4; R 2.46; V 2.24; D 2.52; A 2.06; K 3.25; G 2.38
F19: Q 3.44; W 2.39; V 1.42; N 2.24; M 2.17; D 2.76; S 2.68; R 2.31; P 3.01; C 2.04; L 2.1; A 1.9; I 1.55; T 2.69; H 2.5; K 3.22; Y 2.19
